Assay results published in US12410234B2, “Compositions and methods for retrieving tumor-related antibodies and antigens” (THE TRUSTEES OF THE UNIVERSITY OF PENNSYLVANIA, priority 2018, dated 2025).

Legend:
[1] = test system: THP-1 tumors; experiment: sCAR T plus Nb switch in THP-1 xenograft NSG mice; format: in vivo; conditions: with sCAR T cells
Text: (§1) FIGS. 6A-6H are series of images and graphs depicting that Nb switch-activated CAR T cells eradicate AML in vivo in a controllable manner. FIGS. 6A-6B: Schematic diagram of switchable CAR T system. The Nb157 was expressed and purified by fusing with PNE, a fourteen amino acid peptide, either at N terminal or C terminal of the Nanobody. Primary human T cells were engineered by lentivirus transduction of scFv CAR that recognized PNE specifically. FIG. 6C: Test the affinity of Nb157, Nb157-N-PNE or Nb157-C-PNE against THP-1 cells by flow cytometry analysis. FIG. 6D: Killing assay of Nb157-PNE-mediated sCAR system against THP-1 cells in series of switch concentrations. The ratio of sCAR T to THP-1 was 2:1 and assay was performed after 16 hours incubation. FIG. 6E: 10 million THP-1 cells were transplanted into NSG mice subcutaneously to form the 150 mm^3 of tumors. […] The engraftment volumes were monitored by measuring the lengths and widths of the tumors. […] The primary leukemia or CAR T cells in the mouse peripheral blood were monitored by staining with CD33 or CD3 fluorescence labeled antibodies.
To determine whether the inducible switch, in concert with the sCAR T cells, can kill tumor in mice, THP-1 cells were transplanted into NSG mice subcutaneously to form tumors. […] It was determined whether resumption of the Nb157 switch injection suppress the tumor growth again. […]

[2] = test system: patient-derived AML cells; experiment: sCAR T plus Nb switch in patient-derived AML NSG mice; format: in vivo; conditions: sCAR T cells plus switch compared to sCAR T cell alone
Text: as §1, with “concentrations.” for “concentrations. The ratio of sCAR T to THP-1 was 2:1 and assay was performed after 16 hours incubation. FIG. 6E: 10 million THP-1 cells were transplanted into NSG mice subcutaneously to form the 150 mm^3 of tumors.”
It was explored whether the switch CAR system can also suppress primary AML cells in mice. To this end, patient-derived AML cells were injected into the NSG mice to build leukemic mice model as determined by detection of the human CD33+ AML cells in the peripheral blood of the recipient mice (FIG. 6G). […] The appearance of CD33+ AML cells or CD3+ T cells in peripheral blood were monitored by flow cytometry analysis weekly.

[3] = test system: THP-1 cells; experiment: Killing assay of Nb157-PNE-mediated sCAR system; format: cell-based, human; conditions: sCAR T to THP-1 2:1, 16 hours
Text: as §1
Killing assays were performed as previously described (Cao, L. F. et al. (2010) Cytometry A 77, 534-545). […] Quantification were calculated by either Countbright beads or volume.

[4] = test system: EC1 domain of CDH17; experiment: Flow analysis of VHH1 on CDH17 truncations in HEK293T cells; format: binding, human
Text: (§2) FIGS. 22A-22C are series of images and graphs depicting that the VHH1 binds to the EC1 domain of CDH17. FIG. 22A is a schema showing human CDH17 truncations. […] FIG. 22C is a schematic diagram of CDH17 structure showing VHH1 binds to the N-terminal EC1 domain of CDH17.
(§3) In order to further confirm the antigen of VHH1 is CDH17, several CDH17 internal truncations were constructed. The truncations were transfected into HEK293T cells. […] Additionally, several CDH17 internal truncations were constructed (FIG. 22A) and transfected into HEK293T cells. Flow cytometry analysis was performed with the purified VHH1 nanobody and APC labeled anti-HA secondary antibody against HA on VHH1 nanobody. […] CDH17, a cell adhesion protein highly expressed in human NETs. CDH17 is a cell adhesion protein highly expressed in human NETs. […] One nanobody, named VHH1 was identified that specifically binds to CDH17 protein. […] VHH1 was sequenced and confirmed to contain the conserved VHH sequence (FIG. 14).

[5] = biological target: T1, EC1 domain of CDH17 (Homo sapiens, UniProt Q12864); experiment: as above; format: binding
T1 construct: expressed in transfected cells; host or cells: HEK293T
T1 sequence (Q12864 23-832): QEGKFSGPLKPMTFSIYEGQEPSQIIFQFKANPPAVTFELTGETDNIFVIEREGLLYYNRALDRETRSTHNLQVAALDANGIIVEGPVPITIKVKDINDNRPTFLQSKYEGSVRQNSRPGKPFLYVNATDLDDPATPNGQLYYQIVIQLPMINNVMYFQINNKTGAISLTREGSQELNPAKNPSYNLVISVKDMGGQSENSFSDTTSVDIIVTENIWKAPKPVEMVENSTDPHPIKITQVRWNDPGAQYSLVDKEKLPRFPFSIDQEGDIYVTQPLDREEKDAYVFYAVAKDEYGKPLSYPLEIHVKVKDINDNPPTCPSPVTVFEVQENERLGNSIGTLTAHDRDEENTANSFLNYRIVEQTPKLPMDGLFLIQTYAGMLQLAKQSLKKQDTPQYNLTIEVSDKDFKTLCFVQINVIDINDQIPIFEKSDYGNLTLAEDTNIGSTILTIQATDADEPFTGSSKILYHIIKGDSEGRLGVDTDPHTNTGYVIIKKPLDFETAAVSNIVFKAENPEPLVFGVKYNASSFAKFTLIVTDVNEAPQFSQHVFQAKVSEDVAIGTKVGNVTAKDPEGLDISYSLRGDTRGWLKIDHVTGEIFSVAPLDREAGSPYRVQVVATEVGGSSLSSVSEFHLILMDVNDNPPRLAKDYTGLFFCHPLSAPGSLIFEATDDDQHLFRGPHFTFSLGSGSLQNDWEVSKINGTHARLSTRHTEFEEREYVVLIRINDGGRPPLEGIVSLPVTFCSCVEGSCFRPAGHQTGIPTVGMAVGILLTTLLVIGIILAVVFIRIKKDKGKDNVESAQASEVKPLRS
Text: as §2, §3

[6] = biological target: T2, human full length CDH17 (Homo sapiens, UniProt Q12864); experiment: Flow cytometry of VHH1 phage on HEK293T cells transfected with human CDH17; format: binding; conditions: screen of ~3000 cell surface proteins
T2 construct: expressed in transfected cells; host or cells: HEK293T
T2 sequence (Q12864 23-832): T1 sequence (Q12864 23-832)
Text: (§4) FIGS. 12A-12D are a series of graphs and images depicting isolation of VHH1 from a llama-derived […] antibody phage display naive library by panning to BON cells, as described in FIG. 1A. VHH1 was isolated from phage library and specifically bound human neuroendocrine tumor (NET) BON cells in vitro, but not other tumor cells such as breast cancer cells or leukemia cells, by positive or negative pannings, as illustrated in FIG. 1. […] FIG. 12B depicts the antigen of VHH1 is CDH17 (through DNA sequencing individual phage clones that specifically bound BON cells), as identified by screening the transfected cells. Flow analysis of VHH1 binding to CDH17 overexpressed in 293 cells is shown.
(§5) Next, to identify the protein antigen of the isolated VHH1 nanobody, ˜3000 human cell membrane protein cDNAs were prepared and transfected into HEK293T cells individually, followed by flow cytometry analysis with the VHH1-expressing phage and FITC-labeled secondary antibody against phage M13 protein (FIG. 12A). […] Human or mouse CDH17 cDNA was transiently transfected into HEK293T cells, followed by flow cytometry analysis with the VHH1-expressing phage and FITC-labeled secondary antibody against phage M13 protein.

[7] = test system: NT-3 cells; experiment: Flow analysis of VHH1 binding to NT-3 cells; parameters: species or system human
[8] = test system: BON cells; experiment: Flow cytometry binding of VHH1 to BON cells; parameters: species or system human
[9] = test system: human pancreatic neuroendocrine tumor (PNET) samples; experiment: Flow cytometry binding of VHH1 to human PNET biopsy samples; conditions: four fresh samples via biopsy from liver
[10] = biological target: T3, mouse CDH17 (Mus musculus, UniProt Q9R100); experiment: Flow cytometry of VHH1 phage on HEK293T cells transfected with mouse CDH17; format: binding; conditions: transiently transfected HEK293T
T3 construct: expressed in transfected cells; host or cells: HEK293T
T3 sequence (Q9R100 26-827): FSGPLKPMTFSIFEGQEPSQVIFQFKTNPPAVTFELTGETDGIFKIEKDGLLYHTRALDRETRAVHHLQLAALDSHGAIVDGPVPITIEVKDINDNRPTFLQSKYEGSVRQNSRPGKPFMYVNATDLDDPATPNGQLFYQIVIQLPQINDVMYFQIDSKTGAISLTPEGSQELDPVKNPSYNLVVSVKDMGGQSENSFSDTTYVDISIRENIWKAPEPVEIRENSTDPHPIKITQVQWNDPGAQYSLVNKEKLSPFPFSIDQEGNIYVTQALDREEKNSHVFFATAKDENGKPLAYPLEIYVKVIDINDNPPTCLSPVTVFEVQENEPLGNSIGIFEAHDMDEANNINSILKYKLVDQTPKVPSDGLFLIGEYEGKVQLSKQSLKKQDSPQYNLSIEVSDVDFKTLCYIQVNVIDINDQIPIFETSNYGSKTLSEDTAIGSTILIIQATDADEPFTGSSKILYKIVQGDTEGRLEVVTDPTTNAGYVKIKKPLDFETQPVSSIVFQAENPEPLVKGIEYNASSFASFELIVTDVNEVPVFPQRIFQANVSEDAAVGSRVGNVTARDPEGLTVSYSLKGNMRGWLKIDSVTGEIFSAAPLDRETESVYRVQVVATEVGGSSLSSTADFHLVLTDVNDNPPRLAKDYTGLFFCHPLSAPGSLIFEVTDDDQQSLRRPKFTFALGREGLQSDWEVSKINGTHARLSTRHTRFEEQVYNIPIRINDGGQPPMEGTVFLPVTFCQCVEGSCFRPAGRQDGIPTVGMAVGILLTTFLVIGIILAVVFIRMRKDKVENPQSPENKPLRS
Text: as §4, §5

[11] = test system: BT474 cells; experiment: Flow cytometry binding of VHH1 to BT474 cells; parameters: species or system human
[12] = test system: QGP1 cells; experiment: Flow cytometry binding of VLV or VLV-DM1 to QGP1 cells
Procedure: (§6) Scale bar: […]. […] Scale bar: […].

[13] = test system: BON cells; experiment: Flow cytometry binding of VLV or VLV-DM1 to BON cells; parameters: species or system human
Procedure: as §6

[14] = test system: BON cells; experiment: In vitro killing of BON cells by ADC (MTT assay)
[15] = test system: CDH17-negative QGP1 cells; experiment: In vitro killing of QGP1 cells by ADC (MTT assay); format: cell-based; conditions: cytotoxicity assay
Procedure: as §6

B1: Nb157-C-PNE: Nb157 with C-terminal PNE, a fourteen amino acid peptide; inducible nanobody switch (protein)
chain: AAQAAQVQLQESGGGLVQPGGSLSLSCTASGFTFSSYSMAWVRQAPGKGPEWVSGIYPSDGKTRYADFVKGRFSISRDNAKNMLYLQMNNLEPEDTALYYCARGITGLGPRGQGTQVTVSSAA
modifications: left off: small tags and cut ends
notes: Nb157 with C-terminal PNE, a fourteen amino acid peptide; inducible nanobody switch
tumor growth, THP-1 xenograft ([1]; first five times of switch injection): significantly slowed down growth | tumor size ([1]; switch restarted from day 21, day 52): almost undetectable | survival (Kaplan Maier) [2]: significantly protected the leukemic mice from dying | switch-triggered killing of THP-1 cells by sCAR T cells [3]: potently triggered the killing of THP-1 cells by the sCAR T cells

B2: VHH1: llama nanobody binding the EC1 domain of CDH17, SEQ ID NO: 2 (protein)
VHH: QVQLQESGGGLVQPGGSTRLSCVSSRTFSYYDMGWFRQAPGKEREFVALLSWNGENAEYSDSVMGRFTVSRGNTQNSVNLQMNNLKPEDTGIYYCAVTHGGARSVRSWGQGTQVTVSS
modifications: VHH1 nanobody
binding to EC1 domain deleted truncation Del-1 [4]: completely lost the function to interact with VHH1 nanobody | binding domain on CDH17 [5]: binds to the EC1 domain at the N-terminal part of CDH17 | binding to human CDH17 [6]: only bound to human full length CDH17 | binding to NT-3 cells [7]: robustly bound by VHH1 | binding to BON cells [8]: can be bound by VHH1 | binding to human PNET samples [9]: robustly bound by VHH1 | binding to mouse CDH17 [10]: bound both human and mouse CDH17 | binding to BT474 cells [11]: cannot be bound by VHH1

B3: VLV-DM1 (conjugate)
VHH 1: B2 VHH
VHH 2: B2 VHH
modifications: left off: things letters cannot carry; small tags and cut ends
binding to QGP1 cells [12]: but not QGP1 cells | binding to BON cells [13]: bound to BON cells, albeit with slightly reduced affinity | lysis of BON cells (morphology) ([14]; at 4 nM, microscopic observation): lysed the BON cells | killing of BON cells ([14]; cytotoxicity assay): significantly killed BON cells | killing of QGP1 cells [15]: but not CDH17-negative QGP1 cells
